Experimental data published in the Immune Epitope Database (IEDB).

Columns and labels:
HLA-B*15:03 = assay: IEDB peptide-MHC binding, purified MHC/competitive/radioactivity; filed as Kd, often an IC50 or EC50 that approximates it; ≥ and ≤ were set here for values at or beyond the usual limits of such assays; settings: source organism: Vaccinia virus WR
HLA-B*58:01 [1] = assay: as above
HLA-B*57:01 [2] = assay: as above
HLA-A*03:01 [3] = assay: IEDB peptide-MHC binding, purified MHC/competitive/fluorescence; filed as Kd, often an IC50 or EC50 that approximates it; ≥ and ≤ were set here for values at or beyond the usual limits of such assays; settings: source organism: Escherichia coli
HLA-A*29:02 = assay: IEDB peptide-MHC binding, purified MHC/direct/fluorescence; filed as Kd, often an IC50 or EC50 that approximates it; ≥ and ≤ were set here for values at or beyond the usual limits of such assays
HLA-A*01:01 = assay: as above
HLA-B*15:01 [4] = assay: IEDB peptide-MHC binding, purified MHC/competitive/fluorescence; filed as Kd, often an IC50 or EC50 that approximates it; ≥ and ≤ were set here for values at or beyond the usual limits of such assays; settings: source organism: Salmonella enterica subsp. enterica serovar Typhi
HLA-A*26:01 = assay: as above; settings: source organism: Salmonella enterica subsp. enterica serovar Typhi
HLA-B*35:01 = assay: as above; settings: source organism: Salmonella enterica subsp. enterica serovar Typhi
HLA-B*58:01 [5] = assay: IEDB peptide-MHC binding, purified MHC/direct/fluorescence; filed as Kd, often an IC50 or EC50 that approximates it; ≥ and ≤ were set here for values at or beyond the usual limits of such assays
HLA-B*40:01 = assay: as above
HLA-B*15:01 [6] = assay: as above; settings: source organism: Mycobacterium tuberculosis
HLA-B*27:05 = assay: as above
HLA-B*57:01 [7] = assay: as above
HLA-B*46:01 = assay: as above
HLA-B*44:02 = assay: as above
HLA-A*11:01 = assay: as above
HLA-A*31:01 = assay: as above
HLA-A*03:01 [8] = assay: as above
HLA-A*69:01 = assay: as above
HLA-B*07:02 = assay: as above
HLA-B*39:01 = assay: as above
HLA-A*30:01 = assay: IEDB peptide-MHC binding, purified MHC/competitive/radioactivity; filed as Kd, often an IC50 or EC50 that approximates it; ≥ and ≤ were set here for values at or beyond the usual limits of such assays; settings: source organism: Vaccinia virus WR
HLA-B*15:01 [9] = assay: as above; settings: source organism: Vaccinia virus WR
HLA-B*08:01 [10] = assay: as above; settings: source organism: Vaccinia virus WR
HLA-A*32:01 = assay: as above; settings: source organism: Vaccinia virus WR
HLA-A*68:02 = assay: IEDB peptide-MHC binding, purified MHC/competitive/fluorescence; filed as Kd, often an IC50 or EC50 that approximates it; ≥ and ≤ were set here for values at or beyond the usual limits of such assays; settings: source organism: Cryptosporidium parvum Iowa II
HLA-B*08:01 [11] = assay: IEDB peptide-MHC binding, purified MHC/direct/fluorescence; filed as Kd, often an IC50 or EC50 that approximates it; ≥ and ≤ were set here for values at or beyond the usual limits of such assays; settings: source organism: Mycobacterium avium 104
HLA-B*48:01 = assay: as above; settings: source organism: Mycobacterium avium 104
HLA-A*02:01 = assay: as above; settings: source organism: Mycobacterium avium 104
HLA-B*18:01 = assay: as above; settings: source organism: Mycobacterium avium 104
[12] = source organism: Dengue virus 2 Jamaica/1409/1983
[13] = source organism: Dengue virus 4 Philippines/H241/1956
[14] = source organism: Mycobacterium tuberculosis variant bovis
[15] = source organism: Mycobacterium tuberculosis
[16] = source organism: Mycobacterium avium 104

Sequence: AQYASTLSV
- Kd (HLA-B*15:03): 0.162 nM

Sequence: ASGKLITEW
- Kd (HLA-B*58:01 [1]; [12]): 13.5 nM
- Kd (HLA-B*57:01 [2]; [12]): 4.7 nM

Sequence: ATGPISTLW
- Kd (HLA-B*58:01 [1]; [12]): 1.49 nM
- Kd (HLA-B*57:01 [2]; [12]): 1.42 nM

Sequence: ATGPVLTLW
- Kd (HLA-B*58:01 [1]; [13]): 0.422 nM
- Kd (HLA-B*57:01 [2]; [13]): 2.48 nM

Sequence: ATMATRRGY
- Kd (HLA-A*03:01 [3]): 125 nM

Sequence: DTDPLPVVF
- Kd (HLA-A*29:02; source organism: Mycobacterium tuberculosis str. Haarlem): ≥ 20000 nM
- Kd (HLA-A*01:01; [14]): 236 nM

Sequence: FAHDDRYLY
- Kd (HLA-B*15:01 [4]): 200 nM
- Kd (HLA-A*26:01): 54.4 nM
- Kd (HLA-B*35:01): 0.2 nM

Sequence: FASALTALND
- Kd (HLA-B*58:01 [1]; [12]): 1570 nM
- Kd (HLA-B*57:01 [2]; [12]): 636 nM

Sequence: FHSRFVQAL
- Kd (HLA-A*29:02; [15]): ≥ 20000 nM
- Kd (HLA-B*58:01 [5]; [15]): ≥ 20000 nM
- Kd (HLA-B*40:01; [15]): ≥ 20000 nM
- Kd (HLA-B*15:01 [6]): ≥ 20000 nM
- Kd (HLA-B*27:05; [15]): ≥ 20000 nM
- Kd (HLA-A*01:01; [15]): ≥ 20000 nM
- Kd (HLA-B*57:01 [7]; [15]): ≥ 20000 nM
- Kd (HLA-B*46:01; [15]): ≥ 20000 nM
- Kd (HLA-B*44:02; [15]): ≥ 20000 nM
- Kd (HLA-A*11:01; [15]): ≥ 20000 nM
- Kd (HLA-A*31:01; [15]): ≥ 20000 nM
- Kd (HLA-A*03:01 [8]; [15]): ≥ 20000 nM
- Kd (HLA-A*69:01; [15]): ≥ 20000 nM
- Kd (HLA-B*07:02; [15]): ≥ 20000 nM
- Kd (HLA-B*39:01; [15]): 39.9 nM

Sequence: FSKKKVCFV
- Kd (HLA-A*30:01): 1160 nM
- Kd (HLA-B*15:03): 13100 nM
- Kd (HLA-B*15:01 [9]): 1850 nM
- Kd (HLA-B*08:01 [10]): 5.98 nM
- Kd (HLA-A*32:01): ≥ 35400 nM

Sequence: FTAYYLILA
- Kd (HLA-A*68:02): 9.7 nM

Sequence: GTDSNGMLW
- Kd (HLA-A*29:02; source organism: Mycobacterium tuberculosis H37Rv): ≥ 20000 nM
- Kd (HLA-A*01:01; [15]): 74.8 nM

Sequence: HQAIISDVL
- Kd (HLA-A*29:02; [14]): ≥ 20000 nM
- Kd (HLA-B*58:01 [5]; [14]): ≥ 20000 nM
- Kd (HLA-B*27:05; [14]): ≥ 20000 nM
- Kd (HLA-A*01:01; [14]): ≥ 20000 nM
- Kd (HLA-B*57:01 [7]; [14]): ≥ 20000 nM
- Kd (HLA-B*46:01; [14]): ≥ 20000 nM
- Kd (HLA-B*44:02; [14]): ≥ 20000 nM
- Kd (HLA-A*31:01; [14]): ≥ 20000 nM
- Kd (HLA-A*03:01 [8]; [14]): ≥ 20000 nM
- Kd (HLA-A*69:01; [14]): ≥ 20000 nM
- Kd (HLA-B*07:02; [14]): ≥ 20000 nM
- Kd (HLA-B*39:01; [14]): 42.4 nM

Sequence: IAHVRDVVM
- Kd (HLA-A*29:02; [16]): ≥ 20000 nM
- Kd (HLA-B*58:01 [5]; [16]): ≥ 20000 nM
- Kd (HLA-B*40:01; [16]): ≥ 20000 nM
- Kd (HLA-B*27:05; [16]): ≥ 20000 nM
- Kd (HLA-B*08:01 [11]): 182 nM
- Kd (HLA-A*01:01; [16]): ≥ 20000 nM
- Kd (HLA-B*48:01): ≥ 20000 nM
- Kd (HLA-B*44:02; [16]): ≥ 20000 nM
- Kd (HLA-A*11:01; [16]): ≥ 20000 nM
- Kd (HLA-A*02:01): ≥ 20000 nM
- Kd (HLA-B*18:01): ≥ 20000 nM
- Kd (HLA-A*31:01; [16]): ≥ 20000 nM
- Kd (HLA-A*03:01 [8]; [16]): ≥ 20000 nM
- Kd (HLA-A*69:01; [16]): ≥ 20000 nM
